# B1: Transcriptional coactivator yorkie (Drosophila melanogaster (Fruit fly)), Q45VV3 (parent)
# chain: MLTTMSASSNTNSLIEKEIDDEDMLSPIKSNNLVVRVNQDTDDNLQALFDSVLNPGDAKRPLQLPLRMRKLPNSFFTPPAPSHSRANSADSTYDAGSQSSINIGNKASIVQQPDGQSPIAAIPQLQIQPSPQHSRLAIHHSRARSSPASLQQNYNVRARSDAAAANNPNANPSSQQQPAGPTFPENSAQEFPSGAPASSAIDLDAMNTCMSQDIPMSMQTVHKKQRSYDVISPIQLNRQLGALPPGWEQAKTNDGQIYYLNHTTKSTQWEDPRIQYRQQQQILMAERIKQNDVLQTTKQTTTSTIANNLGPLPDGWEQAVTESGDLYFINHIDRTTSWNDPRMQSGLSVLDCPDNLVSSLQIEDNLCSNLFNDAQAIVNPPSSHKPDDLEWYKIN
# partner: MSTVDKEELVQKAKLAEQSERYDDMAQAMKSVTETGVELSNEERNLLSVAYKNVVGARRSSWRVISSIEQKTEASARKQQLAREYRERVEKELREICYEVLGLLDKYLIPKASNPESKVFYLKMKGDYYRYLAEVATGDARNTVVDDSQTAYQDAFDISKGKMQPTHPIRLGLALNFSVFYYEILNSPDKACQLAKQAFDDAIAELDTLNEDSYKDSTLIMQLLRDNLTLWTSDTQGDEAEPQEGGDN
# Variants of: B1
# Settings: with 1433z_drome 14-3-3zeta
row,effect of a mutation on the interaction,Variant
1,decreasing interaction,S145A
